The target in this experiment is His-Tagged rhFc(gamma) receptor I (recombinant human Fc(gamma)R-I; Acro Biosystems, catalog# FCA-H52H1) (human). The experiment is described as follows: ELISA, fusion protein coated at 10 ug/mL, His-tagged rhFc(gamma)RI in solution, anti-His-HRP.
Sequence of His-Tagged rhFc(gamma) receptor I (recombinant human Fc(gamma)R-I; Acro Biosystems, catalog# FCA-H52H1) (human) (P12314 16-292): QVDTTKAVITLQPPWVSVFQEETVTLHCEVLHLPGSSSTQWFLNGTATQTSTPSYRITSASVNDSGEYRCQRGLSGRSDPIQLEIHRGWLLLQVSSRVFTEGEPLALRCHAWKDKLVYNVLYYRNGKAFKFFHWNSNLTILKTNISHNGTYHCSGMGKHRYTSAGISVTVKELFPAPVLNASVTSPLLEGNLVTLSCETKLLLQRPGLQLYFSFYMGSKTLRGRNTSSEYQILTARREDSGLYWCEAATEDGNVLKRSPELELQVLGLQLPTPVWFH

B1: PD-L1 analog-Fc fusion protein of SEQ ID NO: 26 (Fc fusion)
chain: FTITVSKDLYVVEYGGNVTMECKFPVEKQLNLFALIVYWEMEDKKIIQFVNGKEDLKVQHSSYSQRAQLLKDQLFLGKAALQITDVRLQDAGVYRCLIGYGGADYKRITLKVHAPYRNISQRISVDPVTSEHELMCQAEGYPEAEVIWTSSDHRVLSGKTTITNSNREEKLFNVTSTLNINATANEIFYCTFQRSGPEENNTAELVIPERLPVPASERTHFMILGPFQGGGSGGQDCPKCPAPEMLGGPSVFIFPPKPKDTLLIARTPEVTCVVVDLDPEDPEVQISWFVDGKQMQTAKTQPREEQFNGTYRVVSVLPIGHQDWLKGKQFTCKVNNKALPSPIERTISKARGQAHQPSVYVLPPSREELSKNTVSLTCLIKDFFPPDIDVEWQSNGQQEPESKYRTTPPQLDEDGSYFLYSKLSVDKSRWQRGDTFICAVMHEALHNHYTQESLSHSPG
Regarding B1, the OD450 at 222 ng/ml Fc(gamma) RI was 1.79 OD450.

B2: PD-L1 analog-Fc fusion protein of SEQ ID NO: 27 (Fc fusion)
chain: FTITVSKDLYVVEYGGNVTMECKFPVEKQLNLFALIVYWEMEDKKIIQFVNGKEDLKVQHSSYSQRAQLLKDQLFLGKAALQITDVRLQDAGVYRCLIGYGGADYKRITLKVHAPYRNISQRISVDPVTSEHELMCQAEGYPEAEVIWTSSDHRVLSGKTTITNSNREEKLFNVTSTLNINATANEIFYCTFQRSGPEENNTAELVIPERLPVPASERTHFMILGPFGGGGQGGGSGGQGGGGGDCPKCPAPEMLGGPSVFIFPPKPKDTLLIARTPEVTCVVVDLDPEDPEVQISWFVDGKQMQTAKTQPREEQFNGTYRVVSVLPIGHQDWLKGKQFTCKVNNKALPSPIERTISKARGQAHQPSVYVLPPSREELSKNTVSLTCLIKDFFPPDIDVEWQSNGQQEPESKYRTTPPQLDEDGSYFLYSKLSVDKSRWQRGDTFICAVMHEALHNHYTQESLSHSPG
Turning to B2, the OD450 at 222 ng/ml Fc(gamma) RI stood at 1.78 OD450.

B3: PD-L1 analog-Fc fusion protein of SEQ ID NO: 32 (Fc fusion)
chain: FTITVSKDLYVVEYGGNVTMECKFPVEKQLNLFALIVYWEMEDKKIIQFVNGKEDLKVQHSSYSQRAQLLKDQLFLGKAALQITDVRLQDAGVYCCLIGYGGADYKRITLKVHAPYRNISQRISVDPVTSEHELMCQAEGYPEAEVIWTSSDHRVLSGKTTITNSNREEKLFNVTSTLNINATANEIFYCTFQRSGPEENNTAELVIPERLPVPASERTHFMILGPFGGGGQGGGSGGQGGGGGDCPKCPAPEMLGGPSVFIFPPKPKDTLLIARTPEVTCVVVDLDPEDPEVQISWFVDGKQMQTAKTQPREEQFNGTYRVVSVLPIGHQDWLKGKQFTCKVNNKALPSPIERTISKARGQAHQPSVYVLPPSREELSKNTVSLTCLIKDFFPPDIDVEWQSNGQQEPESKYRTTPPQLDEDGSYFLYSKLSVDKSRWQRGDTFICAVMHEALHNHYTQESLSHSPG
Consider B3, for which the OD450 at 222 ng/ml Fc(gamma) RI turned out to be 1.7 OD450.

B4: PD-L1 analog-Fc fusion protein of SEQ ID NO: 20 (Fc fusion)
chain: FTITVSKDLYVVEYGGNVTMECKFPVEKQLNLFALIVYWEMEDKKIIQFVNGKEDLKVQHSSYSQRAQLLKDQLFLGKAALQITDVRLQDAGVYRCLIGYGGADYKRITLKVHAPYRNISQRISVDPVTSGGGGQGGGSGGQGGGGGDCPKCPAPEMLGGPSVFIFPPKPKDTLLIARTPEVTCVVVDLDPEDPEVQISWFVDGKQMQTAKTQPREEQFNGTYRVVSVLPIGHQDWLKGKQFTCKVNNKALPSPIERTISKARGQAHQPSVYVLPPSREELSKNTVSLTCLIKDFFPPDIDVEWQSNGQQEPESKYRTTPPQLDEDGSYFLYSKLSVDKSRWQRGDTFICAVMHEALHNHYTQESLSHSPG
As to B4, the OD450 at 222 ng/ml Fc(gamma) RI was 1.97 OD450.

B5: PD-L1 analog-Fc fusion protein of SEQ ID NO: 21 (Fc fusion)
chain: LIGYGGADYKRITLKVHAPYRNISQRISVDPVTSGGGGQGGGSGGQGGGGGDCPKCPAPEMLGGPSVFIFPPKPKDTLLIARTPEVTCVVVDLDPEDPEVQISWFVDGKQMQTAKTQPREEQFNGTYRVVSVLPIGHQDWLKGKQFTCKVNNKALPSPIERTISKARGQAHQPSVYVLPPSREELSKNTVSLTCLIKDFFPPDIDVEWQSNGQQEPESKYRTTPPQLDEDGSYFLYSKLSVDKSRWQRGDTFICAVMHEALHNHYTQESLSHSPG
In the case of B5, the OD450 at 222 ng/ml Fc(gamma) RI turned out to be 2.05 OD450.

B6: PD-L1 analog-Fc fusion protein of SEQ ID NO: 24 (Fc fusion)
chain: LIGYGGADYKRITLKVHAPYRNISQRISVDPVTSEHELMCQAEGYPEAEVIWTSSDHRVLSGKTTITNSNREEKLFNVTSTLNINATANEIFYCTFQRSGPEENNTAELVIPERLPVPASERTHFMILGPFGGGGQGGGSGGQGGGGGDCPKCPAPEMLGGPSVFIFPPKPKDTLLIARTPEVTCVVVDLDPEDPEVQISWFVDGKQMQTAKTQPREEQFNGTYRVVSVLPIGHQDWLKGKQFTCKVNNKALPSPIERTISKARGQAHQPSVYVLPPSREELSKNTVSLTCLIKDFFPPDIDVEWQSNGQQEPESKYRTTPPQLDEDGSYFLYSKLSVDKSRWQRGDTFICAVMHEALHNHYTQESLSHSPG
For the molecule B6, the OD450 at 222 ng/ml Fc(gamma) RI came to 1.49 OD450.

B7: PD-L1 analog-Fc fusion protein of SEQ ID NO: 22 (Fc fusion)
chain: FTITVSKDLYVVEYGGNVTMECKFPVEKQLNLFALIVYWEMEDKKIIQFVNGKEDLKVQHSSYSQRAQLLKDQLFLGKAALQITDVRLQDAGVYRCLIGYGGADYKRITLKVHAPYRNISQRISVDPVTSQGGGSGGQDCPKCPAPEMLGGPSVFIFPPKPKDTLLIARTPEVTCVVVDLDPEDPEVQISWFVDGKQMQTAKTQPREEQFNGTYRVVSVLPIGHQDWLKGKQFTCKVNNKALPSPIERTISKARGQAHQPSVYVLPPSREELSKNTVSLTCLIKDFFPPDIDVEWQSNGQQEPESKYRTTPPQLDEDGSYFLYSKLSVDKSRWQRGDTFICAVMHEALHNHYTQESLSHSPG
In the case of B7, the OD450 at 222 ng/ml Fc(gamma) RI was determined as 1.91 OD450.

Source of the values: patent US20260035433A1.
